The record followed here is patent US20250057968A1, “ANTI-DLL3 ANTIBODY AND PHARMACEUTICAL USE THEREOF, AND ANTIBODY-DRUG CONJUGATE CONTAINING ANTI-DLL3 ANTIBODY” (Jiangsu Hengrui Pharmaceuticals Co., Ltd., priority 2021, published 2025).

Assay [1] deals with T1, mouse DLL3 (KACTUS, DLL-MM103) (mouse, UniProt O88516 33-490, limits assumed).
T1 construct: bought antigen of the Biacore assay; construct not described
T1 sequence (looked up): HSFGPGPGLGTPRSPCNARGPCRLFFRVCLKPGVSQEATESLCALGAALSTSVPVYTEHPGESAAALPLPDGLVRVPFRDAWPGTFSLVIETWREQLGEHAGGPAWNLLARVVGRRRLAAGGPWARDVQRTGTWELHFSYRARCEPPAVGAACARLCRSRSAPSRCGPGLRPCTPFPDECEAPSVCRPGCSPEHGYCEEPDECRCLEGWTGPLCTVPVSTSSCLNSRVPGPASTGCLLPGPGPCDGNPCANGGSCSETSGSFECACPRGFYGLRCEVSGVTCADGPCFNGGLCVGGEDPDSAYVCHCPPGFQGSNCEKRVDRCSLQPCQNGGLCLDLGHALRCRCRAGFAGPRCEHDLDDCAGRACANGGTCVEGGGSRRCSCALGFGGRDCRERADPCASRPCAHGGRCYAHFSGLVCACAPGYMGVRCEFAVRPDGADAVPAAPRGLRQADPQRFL
Description: SPR (Biacore 8K), antibody captured on Protein A chip. The text has this: Test antibodies were affinity-captured with a Protein A biosensor chip (Cat. #29127556, Cytiva) for 18 seconds, and then the antigens human DLL3 (ACRO, DLL3-H52H4), cynomolgus monkey DLL3 (KACTUS, DLL-RM103), and mouse DLL3 (KACTUS, DLL-MM103) were allowed to flow over the surface of the chip for 180 seconds, followed by 600 seconds of dissociation. Reaction signals were detected in real time using a Biacore 8K (Cytiva) instrument to obtain association and dissociation curves. After the dissociation in each experimental cycle, the biosensor chip was washed and regenerated with a 10 mM glycine-hydrochloric acid solution (pH 1.5) (Cat. #BR-1003-54, Cytiva). A 1:1 model was fit to the data. The results are shown in Table 12-1, Table 12-2, and Table 12-3.

Assay [2] has as its target T2, Human DLL3 full-length protein on cells (human, UniProt Q9NYJ7 27-618).
T2 construct: H1184 and DMS53 express DLL3 themselves; The cell line is named under assay; also called H1184 cells; DLL3/H82
T2 sequence: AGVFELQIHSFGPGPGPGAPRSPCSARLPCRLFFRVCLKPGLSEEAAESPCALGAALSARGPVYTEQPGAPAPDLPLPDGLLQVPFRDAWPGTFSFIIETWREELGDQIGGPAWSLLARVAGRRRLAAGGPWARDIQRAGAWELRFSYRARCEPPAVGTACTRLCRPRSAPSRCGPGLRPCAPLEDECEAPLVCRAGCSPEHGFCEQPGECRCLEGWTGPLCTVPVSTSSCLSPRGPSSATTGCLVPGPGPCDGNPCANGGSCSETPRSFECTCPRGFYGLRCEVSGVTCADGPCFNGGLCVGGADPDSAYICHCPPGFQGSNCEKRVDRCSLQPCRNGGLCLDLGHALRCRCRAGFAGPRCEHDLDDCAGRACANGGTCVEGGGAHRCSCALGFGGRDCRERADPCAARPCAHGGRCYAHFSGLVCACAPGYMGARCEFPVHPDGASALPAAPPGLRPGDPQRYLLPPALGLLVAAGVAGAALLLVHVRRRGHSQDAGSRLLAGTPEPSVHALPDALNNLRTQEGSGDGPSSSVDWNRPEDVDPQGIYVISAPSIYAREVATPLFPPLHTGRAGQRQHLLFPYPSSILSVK
Description: FACS on DLL3/H82 cells. On the procedure: Cells of the DLL3-expressing small cell lung cancer cell lines H1184 (ATCC, Cat. No. CRL-5858), DLL3/H82, cynoDLL3/CHO-s, and RatDLL3/CHO-s were suspended at 1×10^6/mL in FACS buffer (1% BSA+pH 7.4 PBS), and the cell suspensions were added to a 96-well round-bottom plate (Corning, 3795) at 100 μL/well. The plate was centrifuged at 300 g for 5 min, and the supernatant was removed. Different concentrations of test antibodies were added at 100 μL/well. The plate was incubated in the dark in a refrigerator at 4° C. for 1 h. After 3 washes by centrifugation at 300 g, working concentrations of APC anti-human IgG Fc (BioLegend, 410712) or PE F(ab′)2-goat anti-human IgG (invitrogen, H10104) were added. The plate was incubated in the dark in a refrigerator at 4° C. for 40 min. After 3 washes by centrifugation at 300 g, the geometric mean fluorescence intensity was measured on an Invitrogen flow cytometer, and the EC50 values of the antibodies in binding to DLL3-expressing cells were calculated.

B1: Hu100 (antibody, human IgG1, kappa, V domains shown)
VH: EVQLVESGGGLVKPGGSLRLSCAASGFTFSDSGMHWIRQAPGKGLEWVSYISSGSSTIHYADTVKGRFTISRDNAKNSLYLQMNSLRAEDTAVYYCASPLYYYGRSYNAVAYWGQGTTVTVSS
VL: DIQMTQSPSSLSASVGDRVTITCHASQNINVWLSWYQQKPGKVPKLLIYKASDLHTGVPSRFSGSGSGTDFTLTISSLQPEDVATYYCQQGQSYPLTFGGGTKVEIKR
notes: also called hAb100L1H1
In the case of B1, in assay [1], the binding result is “no binding”. In assay [2], the concentration giving a half-maximal response (EC50) is 0.24 nM and the Emax amounted to 14300.
